Measurements reported in patent publication US9580512.

Molecular target: CD55 (UniProt P08174)
Experiment: cell-based or functional assay

Chain of UniProt P08174 (P08174 35-353 limits assumed): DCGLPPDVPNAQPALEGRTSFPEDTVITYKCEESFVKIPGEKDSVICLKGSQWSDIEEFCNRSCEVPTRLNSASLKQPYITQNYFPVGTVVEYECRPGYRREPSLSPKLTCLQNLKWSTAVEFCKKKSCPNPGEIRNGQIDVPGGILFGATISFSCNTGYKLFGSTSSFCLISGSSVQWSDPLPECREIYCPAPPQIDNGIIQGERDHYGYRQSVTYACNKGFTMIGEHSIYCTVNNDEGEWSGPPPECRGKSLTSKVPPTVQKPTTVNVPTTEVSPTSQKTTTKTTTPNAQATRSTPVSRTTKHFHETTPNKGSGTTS

| C3b deposition on 791T cells, mean linear fluorescence (MLF) | increase in C3b deposition [%] | Substance |
| --- | --- | --- |
| 350 |  | BRIC 216 (antibody) |
| 200 |  | BRIC 220 (antibody) |
| 520 | 250 | monoclonal antibody 791T/36 |
